Tests used:
Format in all cases: cell-based, human
seipin-mEGFP = assay: FACS screen of auxin perceptive proteins and degrons (mean GFP intensity) in A431 cell pools
Description: To search for an improved AID system to solve the issue, a pipeline was first established in human A431 cells to screen AID components (FIG. 2A). Various auxin perceptive proteins and degrons were selected for screening. Several TIR1 and AFB2 proteins from different plant species were tested, as well as degrons derived from AtIAA17 (SEQ ID NO: 3), these including amino acid (aa.) 65-132 (miniAID), aa. 62-109, aa. 71-114. All these degrons were included in the screen. […] These high affinity fragments were tested, assuming higher affinity might translate into more efficient inducible degradation. Degrons with KR dipeptide deletions were tested to see if they would have an effect on enhancing IAA binding affinity, IAA-inducible depletion or as part of a nuclear localization signal. PB1 domain of the AUX/IAA proteins has not been implicated in auxin-inducible degradation, so several other degrons with PB1 domain sequences homologous to miniAID were also tested.
A431 cell pools were generated to stably express different combinations of auxin perceptive protein and degron-fused seipin. Cells were cotransfected with a mixture of three vectors composed of pSH-EFIRES-P expressing an auxin perceptive protein, pSH-EFIRES-B expressing a degron-fused seipin, and pCas9-sgAAVS1 at ratio 3:3:4. Transfected cells were passaged 4-6 h after transfection at 1:5 into 6-well plates. On the next day, cells were selected with 1 μg/ml puromycin (Sigma, P8833) for 2 days, and with 5 μg/ml blasticidin (Gibco, A1113904) for 2 days, then with both antibiotics for at least 6 days before using for FACS analysis.
(§1) For FACS analysis, cells were seeded at 1:5 (for A431) or 1:3 (for A549) into 6-well plate in medium without selection on day 0. On day 1, medium was changed to 2 ml fresh medium without (for 0 h and 1 h IAA samples) or with (for 16 h IAA samples) 0.5 mM IAA. On day 2, the 1 h samples were supplemented with 0.5 ml medium containing 2.5 mM IAA (final 0.5 mM) and incubated for 1 h at 37° C. After treatment, cells were detached with 0.5 ml trypsin at 37° C. for 5-8 min (A549) or 8-12 min (A431), put on ice, and transferred to 1.5 ml Eppendorf tubes containing 0.5 ml serum-free CO2 independent medium (Gibco). The cell suspensions were centrifuged at 4° C., resuspended in 0.3 ml ice-cold serum-free FluoroBrite DMEM (Gibco) and stored on ice prior to FACS analysis. FACS analysis was performed on a BD Influx cell sorter (BD Biosciences-US) with 100 μm nozzle at 4-8° C. using BD FACS Sortware. Cells were gated with SSC, FSC and trigger pulse width for singlets and 100 000 cells were analyzed for each sample. GFP was excited with 488 nm laser and detected with 530/40 detector; mCherry was excited with 561 nm lasers and detected with 615/20 detector. Data was analyzed with BD FACS Sortware. Background subtracted mean fluorescence intensity was used for analysis.

[1] = tested on: endogenous target proteins tagged with miniIAA7-mEGFP; assay: FACS of mean GFP intensity in cells with endogenously miniIAA7-mEGFP-tagged targets and auxin perceptive proteins
Description: as §1
Dynein heavy chain (DHC1) and epidermal growth factor receptor (EGFR) were chosen as the first targets. DHC1 is an essential protein that could not be rapidly depleted by using the OsTIR1-miniAID system in a previous study (Natsume et al., 2016, Cell Rep. 15, 210-218). EGFR is a transmembrane receptor with a canonical function in EGF uptake that can be acutely assessed after protein depletion. Endogenous target loci were tagged homozygously in human cells with miniIAA7-mEGFP through Cas9-mediated homology-directed repair (FIG. 3A). DHC1 was tagged homozygously but it was only possible to tag EGFR heterozygously in A431 cells, likely due to its high copy numbers in this cell type (data not shown). […]
Then the overall performance of the AtAFB2-miniIAA7 system in depleting different endogenous proteins was evaluated. […]

[2] = tested on: A549 cells with tagged EGFR; assay: EGF uptake in A549 cells with tagged EGFR; details: EGFR-OsTIR1 cells
Description: A549 cells were seeded at 0.4×10^5 cells per 4-well for 3 days. Medium was changed to fresh medium with or without 0.5 mM IAA for 1 h. Cells were washed twice with ice-cold serum free medium with 1% BSA and 0.2 ml of 2 μg/ml Alexa Fluor™ 647 EGF complex (ThermoFisher, E35351) in serum free medium with 1% BSA was added. Cells were further incubated at 37° C. for 20 min before harvesting with trypsin. Samples were kept on ice before FACS analysis. Alexa Fluor™ 647 was excited with 640 nm laser and detected with 720/40 detector, analysing 20 000 cells per sample. Negative control samples were cells incubated in medium without EGF complex. Background subtracted mean fluorescence intensity was used for analysis.

B1: AtAFB2: Arabidopsis thaliana AFB2, auxin perceptive F-box protein (SEQ ID NO: 96) (protein, listed as Arabidopsis thaliana)
chain: MNYFPDEVIEHVFDFVTSHKDRNAISLVCKSWYKIERYSRQKVFIGNCYAINPERLLRRFPCLKSLTLKGKPHFADFNLVPHEWGGFVLPWIEALARSRVGLEELRLKRMVVTDESLELLSRSFVNFKSLVLVSCEGFTTDGLASIAANCRHLRDLDLQENEIDDHRGQWLSCFPDTCTTLVTLNFACLEGETNLVALERLVARSPNLKSLKLNRAVPLDALARLMACAPQIVDLGVGSYENDPDSESYLKLMAVIKKCTSLRSLSGFLEAAPHCLSAFHPICHNLTSLNLSYAAEIHGSHLIKLIQHCKKLQRLWILDSIGDKGLEVVASTCKELQELRVFPSDLLGGGNTAVTEEGLVAISAGCPKLHSILYFCQQMTNAALVTVAKNCPNFIRFRLCILEPNKPDHVTSQPLDEGFGAIVKACKSLRRLSLSGLLTDQVFLYIGMYANQLEMLSIAFAGDTDKGMLYVLNGCKKMKKLEIRDSPFGDTALLADVSKYETMRSLWMSSCEVTLSGCKRLAEKAPWLNVEIINENDNNRMEENGHEGRQKVDKLYLYRTVVGTRMDAPPFVWIL
target protein level before IAA addition, compared to OsTIR1 (seipin-mEGFP; miniAID as degron, 0 h IAA): over 5 fold | basal depletion (seipin-mEGFP; miniAID as degron, 0 h IAA, compared to OsTIR1): minimal basal depletion | auxin-inducible depletion at 1 h IAA (seipin-mEGFP; miniAID as degron, 1 h IAA (0.5 mM)): inefficient | auxin-inducible depletion at 16 h IAA, compared to OsTIR1 (seipin-mEGFP; miniAID as degron, 16 h IAA (0.5 mM)): similar | auxin-inducible depletion at 1 h IAA and at longer times ([1]; DHC1 (A431) and EGFR (A549) tagged with miniIAA7-mEGFP): efficient auxin-inducible depletion | basal degradation at 0 h IAA ([1]; DHC1 (A431) and EGFR (A549) tagged with miniIAA7-mEGFP, 0 h IAA): minimal basal degradation

B2: OsTIR1: TIR1 derived from Oryza sativa, auxin perceptive protein (protein)
chain: MTYFPEEVVEHIFSFLPAQRDRNTVSLVCKVWYEIERLSRRGVFVGNCYAVRAGRVAARFPNVRALTVKGKPHFADFNLVPPDWGGYAGPWIEAAARGCHGLEELRMKRMVVSDESLELLARSFPRFRALVLISCEGFSTDGLAAVASHCKLLRELDLQENEVEDRGPRWLSCFPDSCTSLVSLNFACIKGEVNAGSLERLVSRSPNLRSLRLNRSVSVDTLAKILLRTPNLEDLGTGNLTDDFQTESYFKLTSALEKCKMLRSLSGFWDASPVCLSFIYPLCAQLTGLNLSYAPTLDASDLTKMISRCVKLQRLWVLDCISDKGLQVVASSCKDLQELRVFPSDFYVAGYSAVTEEGLVAVSLGCPKLNSLLYFCHQMTNAALVTVAKNCPNFTRFRLCILEPGKPDVVTSQPLDEGFGAIVRECKGLQRLSISGLLTDKVFMYIGKYAKQLEMLSIAFAGDSDKGMMHVMNGCKNLRKLEIRDSPFGDAALLGNFARYETMRSLWMSSCNVTLKGCQVLASKMPMLNVEVINERDGSNEMEENHGDLPKVEKLYVYRTTAGARDDAPNFVKIL
IAA-independent reduction of EGF uptake [2]: severe IAA-independent reduction | basal depletion at 0 h IAA ([1]; EGFR-OsTIR1 cells (A549), 0 h IAA): severe basal depletion

B3: miniIAA7: degron composed of AtIAA7 (SEQ ID NO: 1) amino acids 37-104 (protein, listed as Arabidopsis thaliana)
chain: GFSETVDLMLNLQSNKEGSVDLKNVSAVPKEKTTLKDPSKPPAKAQVVGWPPVRNYRKNMMTQQKTSS
reduction of GFP at 1 h IAA (seipin-mEGFP; AtAFB2 expressing cells, 1 h IAA): best reduction of GFP | efficiency of protein reduction compared to miniAID (seipin-mEGFP; in combination with AtAFB2, 1 h IAA): over 3 fold

From patent US20220041665A1, “POLYNUCLEOTIDE AND USES THEREOF” (Helsingin yliopisto, priority 2019, published 2022)
